Reference: FireProtDB (doi:10.1111/febs.13659)

B1: Cytosolic beta-glucosidase, O61594 (parent)
chain: MKLLVVLSLVAVACNASIVRQQRRFPDDFLFGTATASYQIEGAWDEDGKGENIWDYMVHNTPEVIRDLSNGDIAADSYHNYKRDVEMMRELGLDAYRFSLSWARILPTGMANEVNPAGIAFYNNYIDEMLKYNITPLITLYHWDLPQKLQELGGFANPLISDWFEDYARVVFENFGDRVKMFITFNEPREICFEGYGSATKAPILNATAMGAYLCAKNLVTAHAKAYYLYDREFRPVQGGQCGITISVNWFGPATPTPEDEMAAELRRQGEWGIYAHPIFSAEGGFPKELSDKIAEKSAQQGYPWSRLPEFTEEEKAFVRGTSDLIGVNHYTAFLVSATERKGPYPVPSLLDDVDTGSWADDSWLKSASAWLTLAPNSIHTALTHLNNLYNKPVFYITENGWSTDESRENSLIDDDRIQYYRASMESLLNCLDDGINLKGYMAWSLMDNFEWMEGYIERFGLYEVDFSDPARTRTPRKAAFVYKHIIKHRVVDYEYEPETMVMTIDEGH

Variants of: B1
Settings: Spodoptera frugiperda, pH 6, Thermal, Potassium phosphate 10mM, transition: 2, structure 5CG0, whole UniProt chain shown
[1] = Differential Scanning Fluorimetry

| Variant | Tm [1] | change of melting temperature, mutant - wild type (higher = more stable) [1] | Tm (CD) | change of melting temperature, mutant - wild type (higher = more stable) (CD) | ddG of mutation (higher = less stable) (CD) | unfolding enthalpy (calorimetric) (CD) | unfolding free energy (CD) |
| --- | --- | --- | --- | --- | --- | --- | --- |
| S358A | 42 °C | -3 °C | – | – | – | – | – |
| L100A | 47.6 °C | 2.6 °C | 46.4 °C | 0.4 °C | -0.81 kcal/mol | 53 kcal/mol | 24 kcal/mol |
| L350A | 43.8 °C | -1.2 °C | 43.5 °C | -2.5 °C | 0.7 kcal/mol | 61.4 kcal/mol | 22.5 kcal/mol |
| E265A | 44.9 °C | -0.1 °C | 44.9 °C | -1.1 °C | -0.43 kcal/mol | 51.1 kcal/mol | 23.6 kcal/mol |
| V336F | 34 °C | -11 °C | 30 °C | -16 °C | 2.14 kcal/mol | 51.6 kcal/mol | 21.1 kcal/mol |
| S247A | 45.3 °C | 0.3 °C | – | – | – | – | – |
| E261A | 46.2 °C | 1.2 °C | – | – | – | – | – |
| A263F | 40.6 °C | -4.4 °C | 39.6 °C | -6.4 °C | 0.43 kcal/mol | 44.2 kcal/mol | 22.8 kcal/mol |
| M262F | 45 °C | 0 °C | 45.7 °C | -0.3 °C | -0.53 kcal/mol | 91.7 kcal/mol | 23.7 kcal/mol |
| D260A | 40.8 °C | -4.2 °C | – | – | – | – | – |
| N249A | 39 °C | -6 °C | 38.5 °C | -7.5 °C | 0.94 kcal/mol | 48.2 kcal/mol | 22.3 kcal/mol |
| K366A | 41 °C | -4 °C | 41.5 °C | -4.5 °C | 1.25 kcal/mol | 74.6 kcal/mol | 22 kcal/mol |
| F251A | 42.4 °C | -2.6 °C | 42.2 °C | -3.8 °C | 0.67 kcal/mol | 52.3 kcal/mol | 22.5 kcal/mol |
| S337F | 40.4 °C | -4.58 °C | – | – | – | – | – |
| F334A | 42.5 °C | -2.5 °C | 42.9 °C | -3.1 °C | 1.11 kcal/mol | 72.5 kcal/mol | 22.1 kcal/mol |
| N391A | 46 °C | 1 °C | 44.4 °C | -1.6 °C | – | – | – |
| Y420A | 37.2 °C | -7.8 °C | 37 °C | -9 °C | 1.42 kcal/mol | 47.8 kcal/mol | 21.8 kcal/mol |
| L335A | 40 °C | -5 °C | 38.5 °C | -7.5 °C | 0.84 kcal/mol | 55.2 kcal/mol | 22.4 kcal/mol |
| L389A | 46.6 °C | 1.6 °C | 46.4 °C | 0.4 °C | -0.67 kcal/mol | 81.1 kcal/mol | 23.9 kcal/mol |
| Y390A | 45.1 °C | 0.1 °C | 43 °C | -3 °C | 0.34 kcal/mol | 72.5 kcal/mol | 22.9 kcal/mol |
